The target of experiment [1] is Neisseria meningitides DMP19 (DNA mimic protein 19 kDa), tag free (Neisseria meningitides). The experiment can be described thus: SEC; Superose 12, 20 mM Tris pH 7.4, 100 mM NaCl; 750 μM HU-His6 or 1500 μM tag-free DMP19 alone, or both together; MW from Kav against four standards.
Experiment [2] shares this target. As to the kind of experiment: ITC; ITC200, 300 μM HU-His6 dimer in the syringe into 30 μM DMP19 monomer in the cell, 20 mM Tris pH 7.4, 50 mM NaCl, 25°C, 20 injections of 2 μl.
The target is the same in experiment [3]. The description is as above. The source holds these as a separate data set.
The target in experiment [4] is C-terminal His6-tagged Neisseria HU (not stated (Neisseria)). As to the kind of experiment: SEC; Superose 12, 20 mM Tris pH 7.4, 100 mM NaCl; 750 μM HU-His6 or 1500 μM tag-free DMP19 alone, or both together; MW from Kav against four standards.
Experiment [5] deals with HU (Haemophilus influenzae) (UniProt P43722). The experiment can be described thus: ITC. The note with it: cited from earlier work.

Where “and” joins values, the source holds several entries; their conditions need not be identical. Equal entries are not always repeated. Where two headings read alike, the source gives them in different places.

As for “Neisseria meningitides DMP19 (DNA mimic protein 19 kDa), tag free (natural protein)”, the stoichiometry N in experiment [1] stood at 2.

With “C-terminal His6-tagged Neisseria HU (natural protein)”, the Kd in experiment [2] was 380 nM and 490 nM and 640 nM; in experiment [3], 500 nM. The substance further came in with a stoichiometry N in experiment [4] of 2.

Turning to HI1450 (from UniProt P44199), the Kd in experiment [5] was 3000 nM.
